Columns and labels:
[1] = biological target: dansyl-calmodulin (dansyl-CaM) (bovine) (UniProt P62157); test: other fluorescence titration; 1 µM dansyl-CaM titrated with Ras protein (GppNHp form); […]; 20 mM HEPES pH 7.4, 150 mM NaCl, 1 mM CaCl2, 1 mM MgCl2; excitation 335 nm, emission at 480 nm
[2] = biological target: H-Ras-(KKKKKK), chimeric H-Ras with the polylysine region of K-RasB at 175-180 (UniProt P01112); test: ITC; 0.3–0.8 mM CaM in the syringe injected into 20–40 µM Ras protein (GppNHp form) in the cell; […]; 20 mM HEPES pH 7.4, 150 mM NaCl, 1 mM CaCl2, 1 mM MgCl2; single set of identical sites model
K-RasB-K175A = K-RasB-K175A (UniProt P01116); test: as above
farnesylated K-RasB = farnesylated K-RasB (UniProt P01116); test: as above
[3] = biological target: farnesylated K-RasB-K175A (UniProt P01116); test: as above
[4] = biological target: full-length K-RasB (unprocessed) (UniProt P01116); test: as above

Kd [1] | Kd [2] | dH [2] | stoichiometry N [2] | dH (K-RasB-K175A) | stoichiometry N (K-RasB-K175A) | dH (farnesylated K-RasB) | stoichiometry N (farnesylated K-RasB) | dH [3] | stoichiometry N [3] | dH [4] | stoichiometry N [4] | Substance
2530 nM |  |  |  |  |  |  |  |  |  |  |  | H-Ras-(KKKKKK), chimeric H-Ras with the polylysine region of K-RasB at 175-180 (from UniProt P01112 1-189) (natural protein)
 | 3.89 µM | 6.16 kcal/mol | 0.903 | 2.48 kcal/mol | 0.995 | 3.33 kcal/mol | 1.13 | 1.01 kcal/mol | 0.972 | 3.63 kcal/mol | 0.924 | calmodulin (CaM), Ca^2+-saturated, from bovine brain (from UniProt P62157 1-149) (natural protein)
